Data from article PMC9524020 (2022).

How the values were obtained:
Assay in all cases: SPR
[1] = biological target: FcγRIIIa-158V, FcγRIIIa-G2FS(2-6) (human)
[2] = biological target: FcγRIIIa-158V, FcγRIIIa-Hybrid (human)
[3] = biological target: FcγRIIIa-158V, FcγRIIIa-HEK^WT (human)
[4] = biological target: FcγRIIIa-158V, FcγRIIIa-Monoantennae (human)
[5] = biological target: FcγRIIIa-158V, FcγRIIIa-CHO^WT (human)
[6] = biological target: FcγRIIIa-158V, FcγRIIIa-Oligomannose (human)
[7] = biological target: FcγRIIIa-158V, FcγRIIIa-Afucosylated (human)
Sequence of FcγRIIIa-158V, FcγRIIIa-Afucosylated (human) (chain, as listed by the source): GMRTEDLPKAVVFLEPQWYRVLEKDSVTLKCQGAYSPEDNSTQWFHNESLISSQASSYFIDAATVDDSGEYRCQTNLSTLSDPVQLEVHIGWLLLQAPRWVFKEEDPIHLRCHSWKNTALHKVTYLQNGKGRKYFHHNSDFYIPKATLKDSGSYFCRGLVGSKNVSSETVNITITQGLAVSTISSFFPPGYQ

Sequence of FcγRIIIa-158V, FcγRIIIa-Monoantennae (human) (chain, as listed by the source): as above
Sequence of FcγRIIIa-158V, FcγRIIIa-G2FS(2-6) (human) (chain, as listed by the source): as above
Sequence of FcγRIIIa-158V, FcγRIIIa-Oligomannose (human) (chain, as listed by the source): as above
Sequence of FcγRIIIa-158V, FcγRIIIa-HEK^WT (human) (chain, as listed by the source): as above
Sequence of FcγRIIIa-158V, FcγRIIIa-Hybrid (human) (chain, as listed by the source): as above
Sequence of FcγRIIIa-158V, FcγRIIIa-CHO^WT (human) (chain, as listed by the source): as above

B1: IgG1-CHO^WT (anti-rabies human IgG1 mAb SO57 from the CHO wildtype clone) (antibody)
chain 1: QVQLVQSGAEVKKPGSSVKVSCKASGGTFNRYTVNWVRQAPGQGLEWMGGIIPIFGTANYAQRFQGRLTITADESTSTAYMELSSLRSDDTAVYFCARENLDNSGTYYYFSGWFDPWGQGTLVTVSS
chain 2: QSALTQPRSVSGSPGQSVTISCTGTSSDIGGYNFVSWYQQHPGKAPKLMIYDATKRPSGVPDRFSGSKSGNTASLTISGLQAEDEADYYCCSYAGDYTPGVVFGGGTKLTVL
modifications: N-glycan at Asn297: dominant G0F glycans with small amounts of G1F
Kd [1]: 440 nM | Kd [2]: 460 nM | Kd [3]: 440 nM | Kd [4]: 490 nM | Kd [5]: 490 nM | Kd [6]: 240 nM | Kd [7]: 460 nM
